The values that follow come from patent US20200270352A1 (PIERRE FABRE MEDICAMENT, published 2020).

Some results are limits rather than exact numbers.

Experiment [1] has as its target T1, human IGF-1R, native, on cells (MCF-7, hIGF-1R transfected cells, primary normal human cells) (human, UniProt P08069 31-1367). In words: cell-based or functional assay.
Experiment [2] addresses T2, rmIGF-1R protein (murine IGF-1R extracellular domain, R&D Systems cat 6630-GR/Fc) (murine, UniProt Q60751 31-936).
T2 construct: extracellular domain; Bought reagent; not shown: Fc part implied by the catalogue number /Fc; not described
In words: ELISA on coated rmIGF-1R, SNT at 5 µg/ml. Here is the method:
In addition three ELISAs were performed (either before or after cloning) to study the binding of antibodies on the recombinant human (hIGF-1R) and murine (mIGF-1R) proteins, and on the recombinant human Insulin Receptor (hIR) protein. […] The plates were then blocked with PBS containing 0.5% gelatin (#22151, Serva Electrophoresis GmbH, Heidelberg, Germany) for 2 h at 37° C. Once the saturation buffer discarded by flicking plates, 100 μl of each supernatant dilution were added to each well (either undiluted hybridoma supernatant either supernatant serial dilutions) and incubated for 1 h at 37° C. […] Then, ELISA plates were washed 3-times and the TMB (#UP664782, Uptima, Interchim, France) substrate is added. After a 10 min incubation time at room temperature, the reaction was stopped using 1 M sulfuric acid and the optical density at 450 nm is measured.

The target of experiment [3] is T3, monkey IGF-1R on COS-7 cells (African green monkey kidney) (monkey (African green monkey)).
T3 construct: whole, on cells; also called monkey native IGF-1R
In words: FACS on Cos-7 cells (monkey IGF1R+), SNT at 5 µg/ml.

In experiment [4] the target is T1, human IGF-1R, native, on cells (MCF-7, …). The experiment can be described thus: cell-based or functional assay. This is another data set of the same source.
The target is the same in experiment [5]. The experiment can be described thus: cell-based or functional assay. This is another data set of the same source.
For experiment [6] the target is unchanged. In words: cell-based or functional assay. This is another data set of the same source.
Experiment [7] deals with T4, human insulin receptor on cells (IM9 cells; hIR+ transfected cell line, NIH 3T3 IR+) (human, UniProt P06213 28-1382).
T4 construct: whole, on cells; also called human IR
The experiment can be described thus: FACS titration on NIH 3T3 IR+ cells.

T2 sequence (Q60751 31-936): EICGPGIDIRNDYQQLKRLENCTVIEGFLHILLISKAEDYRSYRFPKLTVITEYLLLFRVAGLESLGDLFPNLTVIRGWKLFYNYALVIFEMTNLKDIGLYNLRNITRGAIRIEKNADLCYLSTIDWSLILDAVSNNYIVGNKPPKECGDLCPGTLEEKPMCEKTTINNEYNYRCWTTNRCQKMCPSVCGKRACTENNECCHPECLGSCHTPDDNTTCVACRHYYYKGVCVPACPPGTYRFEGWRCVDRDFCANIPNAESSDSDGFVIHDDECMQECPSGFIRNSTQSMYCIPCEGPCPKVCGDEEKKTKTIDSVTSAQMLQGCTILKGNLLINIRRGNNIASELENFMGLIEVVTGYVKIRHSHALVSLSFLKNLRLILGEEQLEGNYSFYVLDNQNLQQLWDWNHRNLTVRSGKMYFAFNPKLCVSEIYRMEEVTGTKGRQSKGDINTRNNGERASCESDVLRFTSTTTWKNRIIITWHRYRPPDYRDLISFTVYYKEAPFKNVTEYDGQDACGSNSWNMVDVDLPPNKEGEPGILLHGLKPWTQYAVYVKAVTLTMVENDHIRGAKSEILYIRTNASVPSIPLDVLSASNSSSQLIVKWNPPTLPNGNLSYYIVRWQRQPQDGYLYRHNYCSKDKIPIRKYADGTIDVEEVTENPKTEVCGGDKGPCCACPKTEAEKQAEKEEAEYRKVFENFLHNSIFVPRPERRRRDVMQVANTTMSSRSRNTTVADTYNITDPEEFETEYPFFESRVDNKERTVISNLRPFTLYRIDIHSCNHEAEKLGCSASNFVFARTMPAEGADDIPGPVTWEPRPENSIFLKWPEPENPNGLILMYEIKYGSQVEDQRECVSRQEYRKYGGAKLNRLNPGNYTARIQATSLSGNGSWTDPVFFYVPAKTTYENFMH

B1: murine antibody 212A11 (hybridoma CNCM I-4773) (antibody, V domains shown)
VH: QVQLQQSGPELVKPGASVKMSCKASGYTFTSYYIHWVKQRPGQGLEWIGWIWPGDGSTKYNEKFKGKTTLTADKSSSTAYMFLSSLTSEDSAVYFCASPMITPNYAMDYWGQGASVTVSS
VL: DIQMTQTTSSLSASLGDRVTISCRASQDINKYLNWYQQQPDGTVKLLIYYTSRLHSGVPSRFSGRGSGTDYSLTISNLEQEDIATYFCQQGSTLPYTFGGGTKLEIK
notes: also called m212A11
Take B1: the “inhibition of hIGF-1R phosphorylation in response to IGF-1 (MCF-7 cells)” value (“inhibition of hIGF-1R phosphorylation” for short) in experiment [1] is above 80%. Further, the “D.O 450 nm” value in experiment [2] is 0.102 OD 450 nm. The MFI in experiment [3] stood at 126 MFI.

B2: chimeric antibody c212A11 (antibody, human IgG1, kappa, V domains shown)
VH: QVQLQQSGPELVKPGASVKMSCKASGYTFTSYYIHWVKQRPGQGLEWIGWIWPGDGSTKYNEKFKGKTTLTADKSSSTAYMFLSSLTSEDSAVYFCASPMITPNYAMDYWGQGASVTVSS
VL: DIQMTQTTSSLSASLGDRVTISCRASQDINKYLNWYQQQPDGTVKLLIYYTSRLHSGVPSRFSGRGSGTDYSLTISNLEQEDIATYFCQQGSTLPYTFGGGTKLEIKR
Regarding B2, in experiment [1], the “% of pIGF-1R compared to IGF-1 (MCF-7 cells, 10 µg/ml Ab)” value (“% of pIGF-1R” below) is below 10%. Also, in experiment [4], the “ΔMFI (MFI 4°C - MFI 37°C, MCF-7)” value came to 322 MFI and the “ΔMFI_EC50 (MCF-7)” value worked out at 2.7e-10.

B3: chimeric antibody c213B10 (antibody, human IgG1, kappa)
heavy: not shown
light: DIQMTQTTSSLSASLGDRVTISCRASQDISKYLNWYQQQPDGTIKLLIYYTSRLHSGVPSRFSGRGSGTDYSLTITNLEQEDIATYFCQQGSALPYTFGGGTKLEIKRTVAAPSVFIFPPSDEQLKSGTASVVCLLNNFYPREAKVQWKVDNALQSGNSQESVTEQDSKDSTYSLSSTLTLSKADYEKHKVYACEVTHQGLSSPVTKSFNRGEC
As to B3, in experiment [1], the “% of pIGF-1R” value was below 10%. In experiment [4], the “ΔMFI (MFI 4°C - MFI 37°C, MCF-7)” value is 369 MFI and the “ΔMFI_EC50 (MCF-7)” value came out at 2.3e-10.

B4: murine antibody 213B10 (hybridoma CNCM I-4774) (antibody, V domains shown)
VH: QVQLQQSGSELVKPGASVKMSCKASGYTFTSYYIHWVKQRPGQGLEWIGWIWPGDGSTKYNERFKGKTTLTADKSSSTAYMFLSSLTSEDSAVYFCASPMITPNYAMDYWGQGASVTVSS
VL: DIQMTQTTSSLSASLGDRVTISCRASQDISKYLNWYQQQPDGTIKLLIYYTSRLHSGVPSRFSGRGSGTDYSLTITNLEQEDIATYFCQQGSALPYTFGGGTKLEIK
notes: also called m213B10
Consider B4, for which, in experiment [1], the “inhibition of hIGF-1R phosphorylation” value was above 80%. In addition, in experiment [5], the “MCF7 internalisation assay: % remaining rh IGF1R” value was found to be 30% and the “MCF7 internalisation assay: Δ (MFI 4°C - MFI 37°C)” value (from here on “MCF7 internalisation assay: Δ”) turned out to be 271 MFI. In addition, in experiment [2], the “D.O 450 nm” value stood at 0.127 OD 450 nm.

B5: chimeric antibody c208F2 (antibody, human IgG1, kappa, V domains shown)
VH: QVQLQQSGPELVKPGASVKMSCKASGYTFTSYYIYWVKQRPGQGLEWLGWIWPGDGSTKYNEKFKDKTTLTADKSSNTAYMFLSSLTSEDSAVYFCASPMITPNYAMDYWGQGASVTVSS
VL: DIQMTQTTSSLSASLGDRVTISCRASQDISKYLNWYQQQPDGTIKLLIYYTSRLHSGVPSRFSGRGSGTDYSLTISNVEQEDIATYFCQQGSTLPYTFGGGTKLEIKR
Regarding B5, the “% of pIGF-1R” value in experiment [1] is below 10%. Moreover, in experiment [4], the “ΔMFI (MFI 4°C - MFI 37°C, MCF-7)” value worked out at 288 MFI and the “ΔMFI_EC50 (MCF-7)” value turned out to be 1.8e-10. Moreover, in experiment [6], the “% internalization (MCF-7)” value came out at 82% and the “ΔMFI (MFI 4°C - MFI 37°C, MCF-7, 10 µg/ml, 4 h)” value turned out to be 278 MFI.

B6: murine antibody 208F2 (hybridoma CNCM I-4757) (antibody, V domains shown)
VH: QVQLQQSGPELVKPGASVKMSCKASGYTFTSYYIYWVKQRPGQGLEWLGWIWPGDGSTKYNEKFKDKTTLTADKSSNTAYMFLSSLTSEDSAVYFCASPMITPNYAMDYWGQGASVTVSS
VL: DIQMTQTTSSLSASLGDRVTISCRASQDISKYLNWYQQQPDGTIKLLIYYTSRLHSGVPSRFSGRGSGTDYSLTISNVEQEDIATYFCQQGSTLPYTFGGGTKLEIK
notes: also called m208F2
In the case of B6, the “inhibition of hIGF-1R phosphorylation” value in experiment [1] was above 80%. Also, in experiment [5], the “MCF7 internalisation assay: % remaining rh IGF1R” value was determined as 27%, the “MCF7 internalisation assay: MFI 37°C” value was 94 MFI and the “MCF7 internalisation assay: Δ” value was found to be 261 MFI. Moreover, in experiment [6], the “% internalization (MCF-7)” value stood at 88% and the “ΔMFI (MFI 4°C - MFI 37°C, MCF-7, 10 µg/ml, 4 h)” value amounted to 294 MFI. Moreover, the “D.O 450 nm” value in experiment [2] was 0.099 OD 450 nm.

B7: murine antibody 214F8 (hybridoma CNCM I-4775) (antibody, V domains shown)
VH: QVQLQQSGSELVKPGASVKLSCKASGYTFTSYYIHWVKQRPGQGLEWIGWIWPGDGSTKYNERFKGKTTLTADKSSSTAYMFLSSLTSEDSAVYFCASPMITPNYAMDYWGQGASVTVSS
VL: DIQMTQTTSSLSASLGDRVTFSCRASQDISKYLNWYQQQPDGTIKLLIYYTSRLHSGVPSRFSGRGSGTDYSLTITNLEQEDIATYFCQQGSALPYTFGGGTKLEIK
notes: also called m214F8
As to B7, in experiment [1], the “inhibition of hIGF-1R phosphorylation” value is above 80%. Further, in experiment [5], the “MCF7 internalisation assay: % remaining rh IGF1R” value came to 29%, the “MCF7 internalisation assay: MFI 37°C” value came to 111 MFI and the “MCF7 internalisation assay: Δ” value came to 275 MFI. In experiment [2], the “D.O 450 nm” value stood at 0.102 OD 450 nm.

B8: chimeric antibody c214F8 (antibody, human IgG1, kappa)
heavy: not shown
light: DIQMTQTTSSLSASLGDRVTFSCRASQDISKYLNWYQQQPDGTIKLLIYYTSRLHSGVPSRFSGRGSGTDYSLTITNLEQEDIATYFCQQGSALPYTFGGGTKLEIKRTVAAPSVFIFPPSDEQLKSGTASVVCLLNNFYPREAKVQWKVDNALQSGNSQESVTEQDSKDSTYSLSSTLTLSKADYEKHKVYACEVTHQGLSSPVTKSFNRGEC
On to B8, for which, in experiment [1], the “% of pIGF-1R” value is below 10%. For the same molecule, in experiment [4], the “ΔMFI (MFI 4°C - MFI 37°C, MCF-7)” value is 403 MFI and the “ΔMFI_EC50 (MCF-7)” value was found to be 2.2e-10.

B9: chimeric antibody c219D6 (antibody, human IgG1, kappa, V domains shown)
VH: QVQLQQSGPELVKPGDSVKMSCKASGYSFTSYFIHWVKQRPGQGLEWIGWIWPGDGSTKYNEKFKGKTTLTTDKSSSTAYMFLNSLTSEDSAVYFCASPMITPNYAMDYWGQGASVTVSS
VL: DIQMTQTTSSLSASLGDRVTISCRASQDISKYLNWYQQQPDGTVKLLIYYTSRLHSGVPSRFSGRGSGTDYSLTISNLEQEDIATYFCQQGSTLPYTFGGGTKLEIKR
In the case of B9, the “% of pIGF-1R” value in experiment [1] is below 10%. Moreover, in experiment [4], the “ΔMFI (MFI 4°C - MFI 37°C, MCF-7)” value turned out to be 353 MFI and the “ΔMFI_EC50 (MCF-7)” value stood at 4.4e-10.

B10: murine antibody 219D6 (hybridoma CNCM I-4736) (antibody, V domains shown)
VH: QVQLQQSGPELVKPGDSVKMSCKASGYSFTSYFIHWVKQRPGQGLEWIGWIWPGDGSTKYNEKFKGKTTLTTDKSSSTAYMFLNSLTSEDSAVYFCASPMITPNYAMDYWGQGASVTVSS
VL: DIQMTQTTSSLSASLGDRVTISCRASQDISKYLNWYQQQPDGTVKLLIYYTSRLHSGVPSRFSGRGSGTDYSLTISNLEQEDIATYFCQQGSTLPYTFGGGTKLEIK
notes: also called m219D6
On to B10, for which, in experiment [1], the “inhibition of hIGF-1R phosphorylation” value was above 80%. For the same molecule, in experiment [5], the “MCF7 internalisation assay: % remaining rh IGF1R” value is 30% and the “MCF7 internalisation assay: Δ” value turned out to be 243 MFI. The “D.O 450 nm” value in experiment [2] came to 0.112 OD 450 nm.

B11: humanized antibody hz208F2 VH3/VL3 (hz208F2 H026/L024) (antibody, human IgG1, kappa, V domains shown)
VH: QVQLVQSGAEVKKPGASVKMSCKASGYTFTSYYIYWVKQAPGQGLEWLGWIWPGDGSTKYNEKFQGRVTLTADKSSNTAYMFLSSLRSEDTAVYFCASPMITPNYAMDYWGQGTLVTVSS
VL: DIQMTQSPSSLSASVGDRVTISCRASQDISKYLNWYQQKPGKAPKLLIYYTSRLHSGVPSRFSGRGSGTDYSLTISNLQPEDFATYFCQQGSTLPYTFGGGTKVEIKR
notes: also called H26/L024; first humanized form of 208F2
Take B11: in experiment [6], the “% internalization (MCF-7)” value came to 87% and the “ΔMFI (MFI 4°C - MFI 37°C, MCF-7, 10 µg/ml, 4 h)” value is 344 MFI. The binding result in experiment [7] was “no binding (tested: log[M] about -7.2 (about 6e-8 M))”.
